Measurements from publication PMC12747170.

Target: JEV-ED3 protein (domain III of the Japanese encephalitis virus envelope protein, aa 303-398, C-terminal His-tag) (Japanese encephalitis virus)
Assay: BLI

“recombinant Human EGFR Protein (ECD, hFc Tag) (from UniProt P00533 25-645) (Fc fusion)” was tested, and the Kd was 283 nM.
